{
  "source": "patent US20180273626A1",
  "key": {"FcεRIα (human) [1]": {"target": "FcεRIα (human) (UniProt P12319)", "sequence (P12319 26-201)": "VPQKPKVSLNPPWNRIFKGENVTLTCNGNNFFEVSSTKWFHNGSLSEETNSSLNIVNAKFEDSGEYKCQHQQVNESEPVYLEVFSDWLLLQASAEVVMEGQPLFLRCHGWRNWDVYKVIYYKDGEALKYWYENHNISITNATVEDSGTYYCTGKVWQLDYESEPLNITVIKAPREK", "assay": "SPR; insect derived"}, "FcεRIα (human) [2]": {"target": "FcεRIα (human) (UniProt P12319)", "assay": "SPR; mammalian derived"}},
  "data": [
    {"substance": "IgE-Fc3-4 (from UniProt P01854 209-426)", "values": [
      {"measurement": "Kd", "setting": "FcεRIα (human) [1]", "result": 0.66, "unit": "nM"},
      {"measurement": "Kd", "setting": "FcεRIα (human) [2]", "result": 0.933, "unit": "nM"}
    ]}
  ]
}
